Source: a protein production outcome set (Wang et al. 2014)

Assay: label from the status in PepcDB records

With “MSADLKQSRLADWRQRALAFEREVGKAVIGLERPIRHILIAVFARGHVMLEGDVGVGKTTLLRAVARCLGGAYERVEGTIDLMPNDLVYHTYINELGKPQVEPGPVLKHGEELSVFFFNEVNRARPQVHSLLLRIMAEHAVSAFNREHFFPYLQVFADRNRVEKEETFEIPSAARDRFMMELHVETPADPALRRALMFDPKFHDVDRLLDTLTPGILPYREIPQIAPVIQQSVTASETLQQYALDLWEATRRPADYGVKLEGIDMDRLILAGASARGVSMMMRAARVAAWLDGRDYLVPEDIHDVFRETIGHRVFFNPVYELRRTALIDELLHAIRQKVAAPLEHHHHHH” the protein production was “not failed”.
In the case of “MSSARLVIAGLNGGTGKTILSLGTVRALTNAGHSVKPFKKGPDYIDAEWLGLAAGRAATNLDPFFLDAARLQSLFLHASAGASISIIEGNRGLYDGRDVTGSCSTAELARILDSPVVLAMDCTKMTRTAAAILSGVAAFEPGVKLAGVVLNRTANERHRSMLRQCIEHYTDIPVLGALPRLRDNPIPERHMGLVSDREFAQCAGELDRVAQFVAQHVDVERMAEIARSAQPLASNEPFWPVVAEGDGVRPRIGYVRDAALWFYYEENLEALRQAGADLVELRIIDGDPWPTLDGLYLGGGFPETLASELSACRERLAGIREAALAGLPVYAECGGFMVLGESIVMDGVEYPMSGVFPVQTVFHPKPQGLGYVEAEVVAENPFFPQGMVFRGHEFHYSACRPRDGGAVTHALRLNPGTGMGGGADGLVQANTFAAYTHIFGPAVQGWAERFVRAARGHRDQLNKGTDLSLEHHHHHH”, the protein production is reported as “failed”.
For “MKKQEKGNEVVTFEENPSTYVHHHTKKASMVLSEQEIEVILQSNKETYNEKLEKNTKENAEKVGIEEGNGSSSKITPCIFYTSDEKARLRWSSDLHDCFVNAVEKLGGPNKATPKSVKEAMEVEGIALHHVKSHLQKFRLGKCNIRGGTNQYVRQSQSMPHKSQQQLQLNNDCVNHDSYCNATFLSVTVPPTIDSLHQDTLNNTILFPTTLQAIPTSVSHNTYMSSYPSYNTVEVVKAQLNALQDSSTSQTQETFSRETNLSSIVTRDEADPVDKYIDWNKVGETDIEHDSVEVLEALGLK”, the protein production was “failed”.
With “MLDPATRTPPSLPDFIIGGAMKSATSSLHHLLSNHEQVYLPDGETHFFCMDDPVQHSGFFFPARAPSQRAPDYDRHGETNLDWYRQLFEPAHPDQCVGDYSSTYLPAPDAPLRIKRLLPDVKLLFMLRNPVDRTYSHYWHRVKTGRAVHGFEYELQHGPSTLLLRSFYKPQLERYFDFFPEDQVKVILFERFVDHTQAVVDEVCSFLGLETAVDVAGVDAHQNRSPVPRWPGLQLLLNYCTTGIETRSEGQLPYPAQPQSSYALQGLVHHLRQLNLTPRRPPPMNDSVRACLEQIFARKNQDLGTLLGVDLTSYWPFLRKQHDEPAETAA” the protein production was “failed”.
In the case of “MAETVGMILCGGFGKRLRPLTEKIPKPLIEIKEGYTILDKQLFDLKNAGINTVYLLTGFLGERIEERYGDNYKGLRIEYVREEKPLGTLNAIRLGMEAIDGEKQCIIRNGDVVADLNIKKMIHLGEMSDYPLTMFITRMQSPYGIVETSGDKIINFREKPLLDYYINAGVYFSKGNLDFGDFESGDIEKTLFPLMAKENKLGYYREDGLFWMAIDTSKELEEIRKEYRNREDKPWGYEKILINTEKYLTKELFIREGYRTSFHYHEEKDETMYIISGSGYIEFDNRKEYFSKNDTIRIEPGERHSIVAMENTVLHEVSTPHLNDTVRVQDYYTRLEHHHHHH”, the protein production is reported as “not failed”.
For “METLILTQEEVESLISMDEAMNAVEEAFRLYALGKAQMPPKVYLEFEKGDLRAMPAHLMGYAGLKWVNSHPGNPDKGLPTVMALMILNSPETGFPLAVMDATYTTSLRTGAAGGIAAKYLARKNSSVFGFIGCGTQAYFQLEALRRVFDIGEVKAYDVREKAAKKFVSYCEDRGISASVQPAEEASRCDVLVTTTPSRKPVVKAEWVEEGTHINAIGADGPGKQELDVEILKKAKIVVDDLEQAKHGGEINVAVSKGVIGVEDVHATIGEVIAGLKDGRESDEEITIFDSTGLAIQDVAVAKVVYENALSKNVGSKIKFFRI”, the protein production was “not failed”.
For “MSVKAGDVFKYERRFTEEEVFEFANITGDKGRHHVEYDENGRLMVHGLLTASIGTKVGEELHYIARELVSEFIRPVFTGDTITCELTLTNVEQMEGYKKVSIESVYRNQHEKTVLVGTSYGIIRGLEHHHHHH”, the protein production was “not failed”.
For “AIAEPGSPAGAGAEAPAFYSERKLSRKQLKKLAKAEREYEEERRKELEAAQAVDTAQKRELARIESILRTHALRMEYVEPDGHCLFRALVRQLRPLIQSGLFDTYFPAADTETRSALLTWSTIPDEMEAVWLLRKTLASFIRRRGTEFFPFIVGELDPQGTLLDASDDPAERVAQYCARLEDGTLWGGQPELQAVALALRCRVFVFADPEILPNGMLVMGADDASTDTGAESVTALRVSFHKQFFSLGEHYHAVVPADDSRGDARDPRISAS”, the protein production was “not failed”.
For “MSLSVMFDPQSYPYPSRRNVVYAKNGMVATSQPLAAQAGLDILKAGGNAIDAAIATATALTVLEPTSNGIGSDAFALVWTKGKLHGLNGSGRAPMSLTMEAVKAKGYEQELPPYGVIPVTVPGAPGAWAELAKMYGNLPLAASLAPAIRYAEEGYPVTPTLAKYWKAAYDRFKTEWTDDVYQPWFDTFAPKGRAPRVGEVWRSQGHADTLRSIAESNGESFYRGELADQIHAFFDKHGGYLTKEDLACYRPEWVEPISIDYRGYRVWEIPPNGQGLVALEALNIVKGFEFYHKDTVDTYHKQIEAMKLAFVDGMKYVTEPSDMSVSVEQLLSDEYATERRKEIGEQALTPEPGTPPRGGTVYLATADGDGNMVSFIQSNYMGFGSGVVVPGTGIAMQNRGHNFSLDPNHDNALKPGKRTYHTIIPGFLTKNDQPIGPFGVMGGFMQPQGHMQVMMNTIDFGLNPQAALDAPRWQWTNGKQVQVEPTFPVDIAQALVRRGHKIQVVLDEGAFGRGQIIWRDPTTGVLAGGTEPRTDGQVAAWEGHHHHHH”, the protein production was “not failed”.
In the case of “MSQLTFWFGCALVALIAEFVSGTFYLLMVALALACGGFAAWLGAPEPWQWLIASVSGAVGLLAIHRRRRSLMPPPPPQDDPDWGQQVEIRALTTPGHARIHYRGAEWDALLMDSRLDAGSTGYISGREGNLFKISSQQPQ”, the protein production is reported as “failed”.
For “MDKYRLLLLGGGRGLFDIDEDFMHWIDEFIEEHSNSIEITIVTGKNKKLYDNLTHKKPLKNIKVLGFVNDMYNLIRECDLMLTKPGGATIFEAIQSQTPVLVKMPKVGQEIENAKFIIDKGLGMIYSDDLDLKNIFYKLVSNEFDSIINFMKKNLKEFKTVIHPEKIADYISELIDNHLEHHHHHH”, the protein production was “failed”.
For “MRTSRVLAGILAATLTVSLAACSQDSSETSSNSSSAASQSSDVSNEAFPVTIEHAFGETTIESKPERIATVGWSNHEVPLALGVTPVGFEKVTWGDDDNNGILPWVEETLSKLGSDEPVLFDATDSIPFEEIANTAPDVILASYSGITQEDYDQLSQIAPVVAYPEIAWGTSLDEMIEMNSKAIGLEQEGKDLIADLDAEVASAIDANPELKDAKPVFAFFDESDFSQIGVYTSIDPRMSFLLDAGVQEASVLKEHSSPDSFYEQVSAENPETFDDVDVIITYGTEDDAANAELLSKMQADPLLSRIPAIAEGKVVFLGANPLAASANESPLSIPWGINDYFAKLAEPLK”, the protein production was “failed”.
In the case of “MLTVIAEIRTRPGQHHRQAVLDQFAKIVPTVLKEEGCHGYAPMVDCAAGVSFQSMAPDSIVMIEQWESIAHLEAHLQTPHMKAYSEAVKGDVLEMNIRILQPGI”, the protein production is reported as “not failed”.
In the case of “MRIDVESQNINVTSLKEAPIHLSGQIQPHGVLLVLEEPGLKILQVSNNTWGILGINAENILQKKLEDLLDSFQIERIQSGLSSGNLEFINPTKIWIRKKGDDYAVFDAVFHRNTEGFLILELEPAITQENIPFLSFYHLAKASINQLQKTANLRDFCQIIVQEVRKVTDFDRVMLYKFDDDGHGSVIAEEKLDSLEPYLGLHYPESDIPKPARKLFISNSIRVIPNAQAQAIQMIPALNPVSDRPVDLTNSILRSAANCHLEYLHNMGVGASLTISLIKDNKLWGLIACHHLSAKYVSYELRKACEFLGRVIFAEISAREETEDYDYRMNLTHIQSLLVEYMSQEDNFVDGLIKHQPSLLDLTSAQGAAVCFGDHCTLIGETPKAEDLVFLVQWLKNNVEEEVFYTDSLPQVYPDAERYKNVASGLLAIPISQRNYVLWFRPEVIQTVNWGGDPNQPFEVNKLDGNVRLCPRKSFELWKETVRLTSLPWRYVEIRAALELRKAIVNIVLRQADELAQLAHDLERSNAELKKFAYVASHDLQEPLNQVANYVQLLEMRYQDQLDADANEFITFAVEGVSLMQTLIDDVLAYSKVDTQAIAFQLTEVEKALDKALGNLRQRIAETGANITHDPLPTVMAGSTQLMQLFQNLIANAIKFRSEEAPQIHIGAERLEDEWLFSVRDNGIGIDPQFSDRIFVIFQRLHTRDEYHGTGMGLAICKKIIECHRGRIWVESQLGEGATFYFTIPVGGRERERRNGRKTQNNLFS”, the protein production is reported as “failed”.
For “MQSTIVIVNLLGAVALLLFGLAQVKDGVTRAFGMKLRSVLATGTQNGPRSFFSGFFATVALQSSTATALTVASFAERDLIKPRMAQVVLLGANVGTAVTAWIVAAGVEWLSPLLILAGIILKKGSSNARQGGGTAVIGIGLMLLSLHLLSGATEPMRASPALGVFIGLLDGAWPVALIFSAVLAFVSSSSLAVVVLILSLTATGTLSTGLIIVLILGANLGGAIPPVIATLSGPASARRITIGNLVVRTIGCLIAMPLASYGATYLQQLPLSPAKLPVDAHLIFNLILATLAWPFSGLISDLMAKLVPGDPKAEDGPNFLDQQALDVPVVALANATREVLSVGDSIERMLIRAENAFKHNDLAPLQEVALLEKKVDRRQQEVKVYLSQLGRKGLTDEEARRSIAIIDYAINLEHIGDIIEKGICEQIRKKVLNSFKFSDDGYEELKTLFDMTIENLRAAQSILVTGDFELARRLMESKVDIRRLEKQSSNRHLERLRDGLAESMQTSSLHLDMLRDLKRINAHIVTVAHPILDESGVLIESRLRYAEPRA”, the protein production was “failed”.
With “MNLDKVNKYIKDFEKTIKKPKINFDKSKFYVGVDLGTANIVITILDKDGKPVAGVTQRSRVVRDGIVVDFMEAIEIVRKLKENLEKKLGIEITEGYTAIPPGVEQGSVRAIVNVIESAGIDVLKVVDEPTAASYVLGITDGVVVDLGGGTTGISILEKGKVIFVADEPTGGTHMTLVLAGSYGIDFETAEDIKTDKKKEKEVFVQITPVLQKMAAIVKKYIKDYKVKDVFLVGGACSFDGSESIFERELGLNIYKPYMPVYITPLGIALAGMKSLEHHHHHH” the protein production was “not failed”.
With “PLPEGMQQQFEDTISRDAKQQPTWDRAQAENVRKILESVPPIVVAPEVLELKQKLADVANGKAFLLQGGDCAETFESNTEPHIRANVKTLLQMAVVLTYGASTPVIKMARIAGQYAKPRSSDLDGNGLPNYRGDIVNGVEATPEARRHDPARMIRAYANASAAMNLVRALTSSGTADLYRLSEWNREFVANSPAGARYEALAREIDSGLRFMEACGVSDESLRAADIYCSHEALLVDYERSMLRLATDEEGNEELYDLSAHQLWIGERTRGMDDFHVNFASMISNPIGIKIGPGITPEEAVAYADKLDPNFEPGRLTIVARMGHDKVRSVLPGVIQAVEASGHKVIWQSDPMHGNTFTASNGYKTRHFDKVIDEVQGFFEVHRALGTHPGGIHIEFTGEDVTECLGGAEDITDVDLPGRYESACDPRLNTQQSLELAFLVAEMLRN” the protein production was “failed”.
For “MASNRCAVCKILNETCAPMCIYAPHFPSNDASFKVIIQIFGAVNVCNILDNLEFPEQREIAANCLRYAAEARIRNPISGCHDMILQYKNILNNVEQDIESAVNELGTYVGHDQVPKFYDLPMPDDFLMTPVSLDSFIAKIKSLNEVQKNQLMQLPTAADNAPMIMNSIFGKMEDKNLKDGHRADGASTSAGK”, the protein production was “failed”.
With “KGDRLGAVVEWQDNTEALRLKAEADARALEESRVAGENARIRSALDNCTTNVMIADNDRRIIYMNHSVTDMLRGAESDLRKALPNFEVRRLIGSTMDEFHKNPAHQRDLLANLRSTYRAEIQVAGRTFSLVANPVFDADGERLGSVVEWKDRTAEVEIEREVSEIVRAASAGE” the protein production was “failed”.
In the case of “MALARANSPQEALLWALNDLEENSFKTLKFHLRDVTQFHLARGELESLSQVDLASKLISMYGAQEAVRVVSRSLLAMNLMELVDYLNQVCLNDYREIYREHV”, the protein production is reported as “not failed”.
